According to US20260184748A1 (University of Pennsylvania, published 2026):
Where no end group is shown, it is not given here.

What was measured:
Assay in all cases: cell-based or functional assay
CALCRL-RAMP1 = CALCRL-RAMP1 (UniProt Q16602 23-461; O60894 27-148)
SSTR1 = SSTR1 (UniProt P30872 1-391)
DRD5 = DRD5 (UniProt P21918 1-477)
CALCR-RAMP3 = biological target: T1, CALCR-RAMP3 (UniProt P30988 25-474; O60896 24-148, limits assumed)
T1 sequence (looked up) 1: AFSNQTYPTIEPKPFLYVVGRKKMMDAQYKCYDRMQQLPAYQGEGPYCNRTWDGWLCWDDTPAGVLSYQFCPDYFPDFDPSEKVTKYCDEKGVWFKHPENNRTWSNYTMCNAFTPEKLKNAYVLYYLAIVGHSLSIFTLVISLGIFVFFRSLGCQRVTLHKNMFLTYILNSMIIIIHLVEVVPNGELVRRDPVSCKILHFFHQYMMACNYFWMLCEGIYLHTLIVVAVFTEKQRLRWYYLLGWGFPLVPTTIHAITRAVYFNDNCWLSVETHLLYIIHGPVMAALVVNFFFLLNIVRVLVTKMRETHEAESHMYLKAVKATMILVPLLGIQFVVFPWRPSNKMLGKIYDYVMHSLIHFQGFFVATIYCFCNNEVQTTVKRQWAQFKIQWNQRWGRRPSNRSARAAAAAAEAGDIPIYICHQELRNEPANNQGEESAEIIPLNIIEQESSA
T1 sequence (looked up) 2: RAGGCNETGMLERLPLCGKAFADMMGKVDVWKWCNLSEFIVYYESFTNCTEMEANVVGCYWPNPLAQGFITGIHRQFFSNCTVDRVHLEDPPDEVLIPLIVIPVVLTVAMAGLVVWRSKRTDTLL

MRGPRX1 = MRGPRX1 (UniProt Q96LB2 1-322)
Chain of MRGPRX1 (Q96LB2 whole entry): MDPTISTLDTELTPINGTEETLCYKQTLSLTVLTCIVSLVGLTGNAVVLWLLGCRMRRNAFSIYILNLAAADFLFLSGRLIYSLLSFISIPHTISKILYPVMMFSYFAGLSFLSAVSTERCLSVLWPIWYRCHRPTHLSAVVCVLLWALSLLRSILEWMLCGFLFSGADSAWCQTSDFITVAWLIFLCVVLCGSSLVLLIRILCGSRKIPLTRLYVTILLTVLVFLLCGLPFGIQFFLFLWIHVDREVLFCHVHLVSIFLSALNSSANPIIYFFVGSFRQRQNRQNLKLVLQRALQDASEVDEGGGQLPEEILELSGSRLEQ

PRLHR = biological target: T2, PRLHR (UniProt P49683 1-370)
T2 sequence (looked up): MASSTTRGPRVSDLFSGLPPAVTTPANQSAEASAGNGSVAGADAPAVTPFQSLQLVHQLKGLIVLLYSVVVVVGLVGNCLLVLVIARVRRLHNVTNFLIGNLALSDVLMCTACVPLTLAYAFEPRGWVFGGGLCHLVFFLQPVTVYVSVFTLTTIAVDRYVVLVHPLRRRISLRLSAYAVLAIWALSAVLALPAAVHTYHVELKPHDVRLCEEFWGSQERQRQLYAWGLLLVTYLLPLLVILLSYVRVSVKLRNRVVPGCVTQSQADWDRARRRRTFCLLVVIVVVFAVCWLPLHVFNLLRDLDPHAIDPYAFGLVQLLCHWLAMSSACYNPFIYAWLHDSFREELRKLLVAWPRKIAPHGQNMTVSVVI

PTHR1 = biological target: T3, PTHR1 (UniProt Q03431 27-593)
T3 sequence (looked up): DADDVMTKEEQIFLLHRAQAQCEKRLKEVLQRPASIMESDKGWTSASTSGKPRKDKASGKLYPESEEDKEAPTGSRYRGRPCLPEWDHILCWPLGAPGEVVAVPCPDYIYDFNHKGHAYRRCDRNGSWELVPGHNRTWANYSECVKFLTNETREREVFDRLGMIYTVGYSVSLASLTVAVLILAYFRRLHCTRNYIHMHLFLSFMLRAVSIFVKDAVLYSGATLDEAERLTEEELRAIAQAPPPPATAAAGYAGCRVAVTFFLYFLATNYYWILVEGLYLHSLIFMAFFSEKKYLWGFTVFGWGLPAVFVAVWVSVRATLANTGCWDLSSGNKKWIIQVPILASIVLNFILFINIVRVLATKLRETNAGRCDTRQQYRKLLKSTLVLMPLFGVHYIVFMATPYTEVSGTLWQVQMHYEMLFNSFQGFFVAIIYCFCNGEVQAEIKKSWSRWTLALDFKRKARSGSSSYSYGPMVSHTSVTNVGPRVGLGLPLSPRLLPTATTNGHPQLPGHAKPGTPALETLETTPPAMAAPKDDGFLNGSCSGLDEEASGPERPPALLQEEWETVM

NPY2R = biological target: T4, NPY2R (UniProt P49146 1-381)
T4 sequence (looked up): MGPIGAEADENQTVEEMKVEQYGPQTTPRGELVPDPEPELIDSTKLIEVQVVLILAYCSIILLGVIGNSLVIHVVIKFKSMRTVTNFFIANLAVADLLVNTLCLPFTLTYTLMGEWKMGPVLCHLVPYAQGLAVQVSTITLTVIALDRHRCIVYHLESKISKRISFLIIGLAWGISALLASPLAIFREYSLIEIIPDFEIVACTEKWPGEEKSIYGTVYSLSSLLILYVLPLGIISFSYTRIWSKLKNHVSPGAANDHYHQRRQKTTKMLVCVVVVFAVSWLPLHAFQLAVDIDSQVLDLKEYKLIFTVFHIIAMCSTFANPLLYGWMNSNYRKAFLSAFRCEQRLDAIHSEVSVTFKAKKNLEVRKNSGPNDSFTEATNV

OPRK1 = OPRK1 (UniProt P41145 1-380)
Chain of OPRK1 (P41145 whole entry): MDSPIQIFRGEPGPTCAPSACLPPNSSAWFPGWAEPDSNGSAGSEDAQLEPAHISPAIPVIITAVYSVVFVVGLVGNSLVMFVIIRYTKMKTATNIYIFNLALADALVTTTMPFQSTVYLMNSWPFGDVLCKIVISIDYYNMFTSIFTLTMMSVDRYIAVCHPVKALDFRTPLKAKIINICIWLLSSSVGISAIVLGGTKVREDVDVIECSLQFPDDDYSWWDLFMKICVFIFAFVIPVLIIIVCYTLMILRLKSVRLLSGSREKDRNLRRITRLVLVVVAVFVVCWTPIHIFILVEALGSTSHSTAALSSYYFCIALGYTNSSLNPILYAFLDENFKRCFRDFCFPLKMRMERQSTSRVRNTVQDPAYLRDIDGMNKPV

GALR1 = biological target: T5, GALR1 (UniProt P47211 1-349)
T5 sequence (looked up): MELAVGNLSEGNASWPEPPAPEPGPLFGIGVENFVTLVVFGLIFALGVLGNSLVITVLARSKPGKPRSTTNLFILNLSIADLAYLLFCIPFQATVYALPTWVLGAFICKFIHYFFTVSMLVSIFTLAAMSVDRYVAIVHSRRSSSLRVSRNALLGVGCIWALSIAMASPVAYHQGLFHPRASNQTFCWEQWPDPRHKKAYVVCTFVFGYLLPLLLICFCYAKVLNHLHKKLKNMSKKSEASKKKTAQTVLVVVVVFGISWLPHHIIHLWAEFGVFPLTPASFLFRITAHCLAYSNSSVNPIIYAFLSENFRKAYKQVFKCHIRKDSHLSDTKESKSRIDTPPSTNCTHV

HRH4 = HRH4 (UniProt Q9H3N8 1-390)
Chain of HRH4 (Q9H3N8 whole entry): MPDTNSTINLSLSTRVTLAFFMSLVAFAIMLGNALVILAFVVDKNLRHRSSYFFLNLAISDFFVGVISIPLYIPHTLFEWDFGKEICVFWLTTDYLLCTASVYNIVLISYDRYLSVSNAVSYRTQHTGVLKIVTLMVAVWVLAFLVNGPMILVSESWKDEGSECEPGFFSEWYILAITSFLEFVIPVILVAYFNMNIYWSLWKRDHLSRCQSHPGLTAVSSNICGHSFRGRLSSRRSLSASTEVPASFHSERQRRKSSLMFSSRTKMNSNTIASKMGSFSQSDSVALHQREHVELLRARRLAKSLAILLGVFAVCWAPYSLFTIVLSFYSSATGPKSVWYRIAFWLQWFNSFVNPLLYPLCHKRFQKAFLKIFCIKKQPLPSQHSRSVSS

TACR1 = TACR1 (UniProt P25103 1-407)
Chain of TACR1 (P25103 whole entry): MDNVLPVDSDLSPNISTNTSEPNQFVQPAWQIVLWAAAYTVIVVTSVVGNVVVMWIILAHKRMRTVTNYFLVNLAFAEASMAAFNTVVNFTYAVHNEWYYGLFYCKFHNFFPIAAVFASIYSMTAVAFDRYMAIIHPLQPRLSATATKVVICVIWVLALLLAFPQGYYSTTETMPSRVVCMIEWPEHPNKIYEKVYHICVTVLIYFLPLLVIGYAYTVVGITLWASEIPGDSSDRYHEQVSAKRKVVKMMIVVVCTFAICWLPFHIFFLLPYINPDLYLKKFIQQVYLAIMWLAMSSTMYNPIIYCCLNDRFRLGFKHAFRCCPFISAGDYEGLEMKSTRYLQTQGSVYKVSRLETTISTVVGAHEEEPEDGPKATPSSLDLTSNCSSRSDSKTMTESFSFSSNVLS

Chain of DRD5 (P21918 whole entry): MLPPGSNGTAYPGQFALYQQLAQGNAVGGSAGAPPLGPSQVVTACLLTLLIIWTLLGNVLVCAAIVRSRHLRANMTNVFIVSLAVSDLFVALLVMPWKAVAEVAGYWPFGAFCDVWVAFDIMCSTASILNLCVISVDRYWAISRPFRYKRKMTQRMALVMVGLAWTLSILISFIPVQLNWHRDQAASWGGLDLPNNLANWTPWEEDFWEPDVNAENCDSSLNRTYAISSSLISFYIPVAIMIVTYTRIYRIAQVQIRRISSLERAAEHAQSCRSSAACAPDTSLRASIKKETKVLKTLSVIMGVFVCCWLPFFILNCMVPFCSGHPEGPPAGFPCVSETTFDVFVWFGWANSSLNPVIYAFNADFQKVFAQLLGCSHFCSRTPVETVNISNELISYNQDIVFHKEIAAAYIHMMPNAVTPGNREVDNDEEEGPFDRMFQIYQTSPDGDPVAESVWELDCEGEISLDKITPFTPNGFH
Chain of CALCRL-RAMP1 (Q16602 23-461 limits assumed, chain 1 of 2): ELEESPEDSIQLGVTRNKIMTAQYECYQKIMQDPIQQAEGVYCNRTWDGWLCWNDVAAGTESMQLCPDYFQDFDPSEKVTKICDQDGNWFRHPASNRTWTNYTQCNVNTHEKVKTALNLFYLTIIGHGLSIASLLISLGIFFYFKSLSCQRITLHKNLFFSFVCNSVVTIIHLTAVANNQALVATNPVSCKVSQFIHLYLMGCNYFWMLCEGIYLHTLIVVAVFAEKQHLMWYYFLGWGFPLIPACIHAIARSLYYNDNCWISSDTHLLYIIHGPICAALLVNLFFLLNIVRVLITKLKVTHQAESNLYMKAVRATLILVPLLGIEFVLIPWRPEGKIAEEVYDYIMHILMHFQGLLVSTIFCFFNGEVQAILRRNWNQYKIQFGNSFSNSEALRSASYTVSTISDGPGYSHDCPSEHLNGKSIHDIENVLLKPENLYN
Chain of CALCRL-RAMP1 (O60894 27-148 limits assumed, chain 2 of 2): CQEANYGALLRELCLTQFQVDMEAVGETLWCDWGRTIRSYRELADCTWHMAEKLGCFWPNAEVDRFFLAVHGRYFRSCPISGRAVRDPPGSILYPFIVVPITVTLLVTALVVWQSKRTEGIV
Chain of SSTR1 (P30872 whole entry): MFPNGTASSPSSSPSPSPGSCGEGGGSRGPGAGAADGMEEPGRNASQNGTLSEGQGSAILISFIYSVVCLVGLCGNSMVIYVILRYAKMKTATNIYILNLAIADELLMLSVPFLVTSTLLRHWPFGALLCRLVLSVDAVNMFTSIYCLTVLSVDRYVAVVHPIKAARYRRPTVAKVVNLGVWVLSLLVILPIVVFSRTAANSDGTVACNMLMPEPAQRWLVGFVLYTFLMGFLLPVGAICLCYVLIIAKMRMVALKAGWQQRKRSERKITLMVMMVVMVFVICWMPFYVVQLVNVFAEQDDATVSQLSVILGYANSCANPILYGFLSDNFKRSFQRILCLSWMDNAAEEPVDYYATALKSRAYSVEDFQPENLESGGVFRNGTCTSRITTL

B1: octadecaneuropeptide (ODN) (peptide)
peptide: QATVGDVNTDRPGLLDLK
modifications: also: synthesised on Rink amide resin, C-terminal amide not given here outright
In the case of B1, the “% Activity, arrestin, antagonist mode, 2.5 uM” value (“% Activity, arrestin” below) (CALCRL-RAMP1) is reported as -19%, the “% Activity, arrestin” value (SSTR1) is reported as -1.6% and the “% Activity, arrestin” value (DRD5) is reported as 4.2%. The “% Activity, arrestin” value (CALCR-RAMP3) was -0.1%, the “% Activity, arrestin” value (MRGPRX1) was 3.8% and the “% Activity, arrestin” value (PRLHR) was -22.2%. The “% Activity, arrestin” value (PTHR1) was -5.7%, the “% Activity, arrestin” value (NPY2R) was -10.3% and the “% Activity, arrestin” value (OPRK1) was -4.5%. The “% Activity, arrestin” value (GALR1) was -22.5%, the “% Activity, arrestin” value (HRH4) was 5.2% and the “% Activity, arrestin” value (TACR1) was -17.6%.
